How the values were obtained:
[1] = target: CRP (catabolite activator protein, cAMP receptor protein) (Escherichia coli, UniProt P0ACJ8 P0ACJ8:2-210); assay: DRaCALA; 100 nM CRP, 4 nM probe, 200 uM cAMP; settings: tags: His-CRP expressed from pBAD-CRP, Ni-NTA and anion exchange; chain copies: 2; label: 5'-32P
[2] = target: MBP (maltose binding protein) (UniProt P0AEX9 P0AEX9:27-396); assay: DRaCALA; 100 nM MBP, 4 nM probe, 200 uM cAMP

Chain of CRP (catabolite activator protein, cAMP receptor protein) (P0ACJ8 2-210, one chain of several): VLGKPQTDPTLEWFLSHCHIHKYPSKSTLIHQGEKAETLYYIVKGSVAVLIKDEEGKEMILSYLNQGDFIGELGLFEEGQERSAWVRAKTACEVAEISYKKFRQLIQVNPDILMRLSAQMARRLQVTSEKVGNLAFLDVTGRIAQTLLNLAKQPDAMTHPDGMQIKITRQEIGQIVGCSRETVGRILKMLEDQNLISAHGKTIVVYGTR

Binder | binding result [1] | binding result [2]
10:G-C oligo duplex (gd130/gd131) (dsDNA) DNA 1: AGGAGGAATAAATGTCATCTAGATGACATTTTAGAGGAGG DNA 2: CCTCCTCTAAAATGTCATCTAGATGACATTTATTCCTCCT | no binding | –
8,10:G-C oligo duplex (gd132/gd133) (dsDNA) DNA 1: AGGAGGAATAAATCTCATCTAGATGAGATTTTAGAGGAGG DNA 2: CCTCCTCTAAAATCTCATCTAGATGAGATTTATTCCTCCT | no binding | –
ICAP oligo duplex (gd126/gd127) (dsDNA) DNA 1: AGGAGGAATAAATGTGATCTAGATCACATTTTAGAGGAGG DNA 2: CCTCCTCTAAAATGTGATCTAGATCACATTTATTCCTCCT | – | no binding
